Where “and” joins values, the source holds several entries; their conditions need not be identical. Equal values may be shown once. Ends that are not written are not given here.
Legend:
Rabbits [1] = experiment: Immunization of rabbits, ELISA cross-reaction with the same antigen attached to a different LBB (Table 2); format: in vivo, rabbit; details: for Endpoint titers (log10) 3°: after second booster
Procedure: (§1) Rabbits (groups of two) were each immunized with 150 μg of one conjugate, reconstituted and equilibrated for at least 1 h at r.t. in either 400 μl PBS (10 mM sodium phosphate, 154 mM NaCl, pH 7.2), or with Freund's adjuvant (Freund's complete adjuvant (FA) for primary and Freund's incomplete adjuvant (FIA) for booster immunizations). Immunizations were performed on days 0, 28 and 56. Sera were collected on days 14, 38 and 66. The sera were analyzed by enzyme-linked immunosorbent assay (ELISA), to detect antibodies that bind to the conjugates used for immunizations.
The specificity of each hapten specific immune response was also analyzed by ELISA (Table 2). Here the ability of antibodies elicited by each conjugate to cross-react with the same antigen attached to a different LBB was measured.
(§2) ELISA microtiter-plates (Nunc Immunoplates Polysorb F96) were coated overnight with a 5 μg/ml solution of each antigen in PBS. The wells were then washed with PBS containing 0.05% Tween 20 (PBST) and blocked with PBS containing 5% skimmed milk powder for 1 h at r.t. After blocking, the wells were washed three times with PBST and incubated with serial dilutions of rabbit serum in PBS containing 0.05% Tween 20 and 0.5% skimmed milk powder (MPBST) for 2.5 h at r.t., followed by three washes with PBST. The plates were then incubated with alkaline phosphatase-conjugated mouse anti-rabbit IgG antibody (Sigma), diluted 1:20000 in MPBST for 1 h at r.t., washed again three times with PBST and incubated in the dark with a 1 mg/ml solution of p-nitrophenyl phosphate (Sigma) in substrate buffer (50 mM sodium carbonate buffer, 1 mM MgCl2, pH 9.6) at r.t. The absorbance was read after an appropriate time at 405 nm using a Bio-Rad Model 3550 microplate reader.

Rabbits [2] = experiment: Immunization of rabbits, ELISA for antibodies binding the conjugate used for immunization (Table 1); format: in vivo, rabbit; details: 150 μg conjugate, ELISA on the immunogen; for log10 (Endpoint titers) 3°: after second booster (serum day 66), rabbits in groups of two, each group given one conjugate; for log10 (Endpoint titers) 2°: after first booster (serum day 38)
Procedure: as §1, §2

[3] = Far UV circular dichroism spectroscopy (CONTIN analysis, thermal denaturation); format: physicochemical
Procedure: Far ultraviolet circular dichroism (CD) spectra were measured at r.t. using a Jasco J-715 spectropolarimeter and a 0.1 cm path length quartz cell. Peptide 5 solution (50 μM) and lipopeptide 4 solution (35.7 μM) were prepared in TRIS buffer (10 mM TrisHCl, 90 mM NaCl, pH 7.4) and concentrations were determined by phosphate or amino acid analysis, as appropriate. Scan speeds of 10-100 nm/min, 1-2 second response times and a 1 nm spectral bandwidth were employed and spectra were collected at a minimum resolution of 0.5 nm. After subtraction of the blank, the spectral values were reported as mean residue ellipticity [deg. cm^2/dmol] and the lipid moiety was ignored when calculating the mean residue molecular weight.
CD spectra of low concentration samples of lipopeptide 4 (2-40 μM) were measured at 20° C. with a Jasco J-810 spectropolarimeter using a 1 cm path length quartz cell. Lipopeptide solutions were prepared in PBS (10 mM Na2HPO4, 90 mM NaCl, pH 7.4) and concentrations were determined by phosphate analysis. Scan speeds of 10 nm/min, 4 second response time and a 2 nm spectral bandwidth were employed and spectra were collected at a minimum resolution of 0.5 nm. Data were elaborated as described above.

[4] = far UV CD at room temperature, FIG. 6

## LBB7-LY-CH: conjugate of lipopeptide 7 with LY-CH-HMB (SGIKKEIEAIKKEQEAIKKKIEAIERMLQLTVWGIKQLQARVLAVERYLGDCG; also: conjugate of lipopeptide 7 with LY-CH-HMB)
Rabbits [1]; ELISA antigen LBB6-LY-CH, after first booster
  Endpoint titers (log10) 2°: 5.01 and 4.71
Rabbits [1]; ELISA antigen LBB6-LY-CH
  Endpoint titers (log10) 3°: 5.01
Rabbits [2]
  log10 (Endpoint titers) 3°: 4.41 and 4.11

## LBB6-LY-CH: conjugate of lipopeptide 6 with LY-CH-HMB (GGAVSKVLHLEGEVNKIKSALLSTNKAVVSLSNGVSVLTSKVLDLKNYIDKQC; also: conjugate of lipopeptide 6 with LY-CH-HMB)
Rabbits [1]; ELISA antigen LBB7-LY-CH
  Endpoint titers (log10) 3°: 5.41 and 5.71
Rabbits [2]; two rabbits (a, b)
  log10 (Endpoint titers) 2°: 5.11
Rabbits [2]; after primary immunization (serum day 14), two rabbits (a, b)
  log10 (Endpoint titers) 1°: 3.90 and 4.20

## peptide 5: same peptide sequence as lipopeptide 4 but lacks the phospholipid and linker (GGAVSKVLHLEGEVNKIKSALLSTNKAVVSLSNGVSVLTSKVLDLKNYIDKQ; derived from RSV F glycoprotein)
[3]; [4]
  aperiodic structure content (CONTIN): 42%
  β-sheet content (CONTIN): 25%
[3]; far UV CD at room temperature, pH 7.4, FIG. 6
  α-helix content (CONTIN): 33%
[3]; peptide concentration 35 μM
  mid point of thermal denaturation transition: ~40 °C

B1: LBB7-12: conjugate of lipopeptide 7 with peptide 12 (conjugate)
chain: SGIKKEIEAIKKEQEAIKKKIEAIERMLQLTVWGIKQLQARVLAVERYLGDCG
peptide: NCRKSIHIGPGRAFYTTGCG
modifications: cyclised or stapled
Rabbits [1]; ELISA antigen LBB6-12, after primary immunization
  Endpoint titers (log10) 1°: <1.70
Rabbits [2]; two rabbits (a, b)
  log10 (Endpoint titers) 2°: 4.41 and 4.11
Rabbits [2]
  log10 (Endpoint titers) 3°: 4.41 and 4.11

B2: LBB6-12: conjugate of lipopeptide 6 with peptide 12 (conjugate)
chain: GGAVSKVLHLEGEVNKIKSALLSTNKAVVSLSNGVSVLTSKVLDLKNYIDKQC
peptide: NCRKSIHIGPGRAFYTTGCG
modifications: cyclised or stapled
Rabbits [2]
  log10 (Endpoint titers) 3°: 5.01 and 4.71
